Target: T1, wild-type EGFR (epidermal growth factor receptor) (UniProt P00533 25-1210)
T1 construct: EGFR, wild type, expressed from the plasmid pcDNA3.1-EGFR; Probably the whole human receptor, expressed in cells that have no EGFR of their own; source: MDA-MB-435, transfected (pcDNA3.1-EGFR), in lysate
Test: co-IP; lysates of MDA-MB-435 cells transfected with EGFR plasmids, immunoprecipitated with the anti-EGFR antibody IMC-C225; western blot with the anti-S2R^PGRMC1 antibody PGR-UK1; representative of three independent experiments
Conditions: partners not purified

- fold co-precipitated, wild-type EGFR against the EGFR-Δ747-749/A750P mutant: 2.4 fold
B1: S2R^PGRMC1 (sigma-2 receptor / progesterone receptor membrane component 1) (natural protein)
chain: not shown
notes: PGRMC1 (progesterone receptor membrane component 1), endogenous in MDA-MB-435 human breast cancer cells, detected with the antibody PGR-UK1; source: endogenous, MDA-MB-435 lysate

Source: article PMC4278327, “Pathways driving the endocytosis of mutant and wild-type EGFR in cancer” (Oncoscience, 2014)
